Source: publication PMC6886524 (Journal of structural and functional genomics, 2015)

Target: Urease beta subunit (urea amidohydrolase) (UreB) of H. pylori (H. pylori, UniProt P69996 1-569)
Experiment: crystal structure

Sequence of Urease beta subunit (urea amidohydrolase) (UreB) of H. pylori (P69996 whole entry): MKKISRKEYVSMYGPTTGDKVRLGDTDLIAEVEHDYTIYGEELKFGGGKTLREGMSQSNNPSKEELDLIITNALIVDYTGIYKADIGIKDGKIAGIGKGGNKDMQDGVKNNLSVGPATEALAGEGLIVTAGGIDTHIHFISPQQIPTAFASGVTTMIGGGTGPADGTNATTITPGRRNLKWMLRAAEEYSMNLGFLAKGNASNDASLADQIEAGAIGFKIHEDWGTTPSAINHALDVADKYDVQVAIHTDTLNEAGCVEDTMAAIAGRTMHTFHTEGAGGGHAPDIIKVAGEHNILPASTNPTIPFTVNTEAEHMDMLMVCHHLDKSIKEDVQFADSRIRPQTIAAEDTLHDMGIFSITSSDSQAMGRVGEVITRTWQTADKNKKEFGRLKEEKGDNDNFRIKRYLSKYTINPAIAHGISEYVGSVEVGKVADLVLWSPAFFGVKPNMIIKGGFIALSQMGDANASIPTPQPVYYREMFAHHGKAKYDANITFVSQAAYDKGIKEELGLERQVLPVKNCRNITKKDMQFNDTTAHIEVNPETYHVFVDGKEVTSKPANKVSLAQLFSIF

B1: Urease alpha subunit (UreA) (urea amidohydrolase) of H. pylori (natural protein)
chain: MKLTPKELDKLMLHYAGELAKKRKEKGIKLNYVEAVALISAHIMEEARAGKKTAAELMQEGRTLLKPDDVMDGVASMIHEVGIEAMFPDGTKLVTVHTPIEANGKLVPGELFLKNEDITINEGKKAVSVKVKNVGDRPVQIGSHFHFFEVNRCLDFDREKTFGKRLDIASGTAVRFEPGEEKSVELIDIGGNRRIFGFNALVDRQADNESKKIALHRAKERGFHGAKSDDNYVKTIKE
B1: binds.
